We go through two molecules from paper PMC5779698, “Identification and analysis of OsttaDSP, a phosphoglucan phosphatase from Ostreococcus tauri” (PLoS ONE, 2018).

As a reminder, the stoichiometry N is a count of units in the complex or per binding partner.

The target in data set [1] is OsttaDSP, dual specific phosphatase from Ostreococcus tauri, mature protein lacking the chloroplast transit peptide (Ostreococcus tauri). The data set is described as follows: SEC; HiPrep Sephacryl S-300 High-Resolution column, calibrated with a molecular weight kit; affinity-purified mature OsttaDSP, single peak of an estimated 54.4 kDa.
Substrate in the data set “purified protein”: O=[N+]([O-])c1ccc(OP(=O)(O)O)cc1
Nature of the data set: purified protein. As to conditions: pH 7, 37 °C, 2 mM DTT, hyperbolic saturation. Format: biochemical, Ostreococcus tauri.

On to “OsttaDSP, dual specific phosphatase from Ostreococcus tauri, mature protein lacking the chloroplast transit peptide (enzyme)”, for which, in data set [1], the stoichiometry N was 2.

B1: OsttaDSP (Ostreococcus tauri) (protein)
chain: ATTTTRRGLADDDAYNAAMRAYSASPYEYKHDIGLYYHRIKPFLIVGTQPQTPADVDRLRETEGVTCVFNTQQEKDWKYWNVDYDSVRARAIETGMRHVRYPFEDFSADSLREGLPSAAAMLDAEIERGETVYLHCTAGMGRSPGLAIAYMYWFLDAYNTLDGAYEGLTSIRPCGPKKESIRGATCDLLAAIESDGKVEPLKRELEENEGVVLSIVSKERIQRAVRAMLLSTSDETVAKPWWKVW
notes: mature protein lacking the first 26 residues (predicted chloroplast transit peptide), 245 residues, N-terminal His6 tag kept, synthetic gene, pRSFDuet-1, E. coli BL21(DE3) pLys; homodimer
For the molecule B1, the K0.5 in “purified protein” is listed as 22.7 ± 3.4 mM.
